The supplement of paper PMC10567573

B1: NP_116010.1 (parent)
chain: HSLRAVSTDPPHHDHHDEFCLMP

Tests used:
[1] = variants of: B1; test: protein stability index of a GFP-peptide fusion (GPS, HEK-293T) (PSI 1-6); higher = more stable; details: c terminus: native
[2] = variants of: B1; test: as above; details: c terminus: native; remark: listed apart in the source

| Variant | protein stability index [1] | protein stability index [2] |
| --- | --- | --- |
| HSLRVVSTDPPHHDHHDEFCLMP [A5V] | 2.37 | 3.93 |
| HSLREVSTDPPHHDHHDEFCLMP [A5E] | 2.51 | 2.01 |
| HSLRGVSTDPPHHDHHDEFCLMP [A5G] | 3.03 | 2.44 |
| HSLRKVSTDPPHHDHHDEFCLMP [A5K] | 2.94 | 2.07 |
| HSLRTVSTDPPHHDHHDEFCLMP [A5T] | 2.38 | 2.67 |
| HSLRLVSTDPPHHDHHDEFCLMP [A5L] | 2.4 | 3.4 |
| HSLRWVSTDPPHHDHHDEFCLMP [A5W] | 2.96 | 4.16 |
| HSLRDVSTDPPHHDHHDEFCLMP [A5D] | 3.02 | 1.7 |
| HSLRHVSTDPPHHDHHDEFCLMP [A5H] | 2.54 | 1.69 |
| HSLRCVSTDPPHHDHHDEFCLMP [A5C] | 2.6 | 2.2 |
| HSLRFVSTDPPHHDHHDEFCLMP [A5F] | 2.79 | 3.93 |
| HSLRNVSTDPPHHDHHDEFCLMP [A5N] | 2.54 | 2.18 |
| HSLRIVSTDPPHHDHHDEFCLMP [A5I] | 2.56 | 2.96 |
| HSLRMVSTDPPHHDHHDEFCLMP [A5M] | 1.9 | 2.19 |
| HSLRSVSTDPPHHDHHDEFCLMP [A5S] | 2.87 | 2.34 |
| HSLRQVSTDPPHHDHHDEFCLMP [A5Q] | 2.5 | 2 |
| HSLRAVGTDPPHHDHHDEFCLMP [S7G] | 2.58 | 2.83 |
| HSLRAVFTDPPHHDHHDEFCLMP [S7F] | 2.23 |  |
| HSLRAVHTDPPHHDHHDEFCLMP [S7H] | 2.53 |  |
| HSLRAVCTDPPHHDHHDEFCLMP [S7C] | 2.48 | 2.82 |
| HSLRAVDTDPPHHDHHDEFCLMP [S7D] | 2.81 | 2.26 |
| HSTRAVSTDPPHHDHHDEFCLMP [L3T] | 2.22 | 2.75 |
| HSVRAVSTDPPHHDHHDEFCLMP [L3V] | 2.75 | 1.7 |
| HSHRAVSTDPPHHDHHDEFCLMP [L3H] | 2.57 | 2.9 |
| HSARAVSTDPPHHDHHDEFCLMP [L3A] | 2.35 | 2.02 |

| Variant | protein stability index [1] | protein stability index [2] |
| --- | --- | --- |
| HSSRAVSTDPPHHDHHDEFCLMP [L3S] | 3.2 | 2.59 |
| HSKRAVSTDPPHHDHHDEFCLMP [L3K] | 2.76 | 2.04 |
| HSQRAVSTDPPHHDHHDEFCLMP [L3Q] | 2.78 | 2.52 |
| HSRRAVSTDPPHHDHHDEFCLMP [L3R] | 2.82 | 2.21 |
| HSNRAVSTDPPHHDHHDEFCLMP [L3N] | 3.45 | 2.59 |
| HSCRAVSTDPPHHDHHDEFCLMP [L3C] | 2.38 | 1.7 |
| HSYRAVSTDPPHHDHHDEFCLMP [L3Y] | 2.38 |  |
| HSERAVSTDPPHHDHHDEFCLMP [L3E] | 2.28 | 2.11 |
| HSMRAVSTDPPHHDHHDEFCLMP [L3M] | 2.43 | 3.08 |
| HSGRAVSTDPPHHDHHDEFCLMP [L3G] | 3.07 | 2.46 |
| HSWRAVSTDPPHHDHHDEFCLMP [L3W] | 2.23 | 2.47 |
| HSIRAVSTDPPHHDHHDEFCLMP [L3I] | 2.39 | 3.18 |
| HSDRAVSTDPPHHDHHDEFCLMP [L3D] | 2.5 | 2.14 |
| CSLRAVSTDPPHHDHHDEFCLMP [H1C] | 2.68 | 2.48 |
| RSLRAVSTDPPHHDHHDEFCLMP [H1R] | 2.68 | 2.35 |
| YSLRAVSTDPPHHDHHDEFCLMP [H1Y] | 2.63 | 1.19 |
| ESLRAVSTDPPHHDHHDEFCLMP [H1E] | 3.5 | 2.41 |
| PSLRAVSTDPPHHDHHDEFCLMP [H1P] | 3.39 | 2.21 |
| QSLRAVSTDPPHHDHHDEFCLMP [H1Q] | 3.06 | 1.9 |
| NSLRAVSTDPPHHDHHDEFCLMP [H1N] | 3.37 | 1.64 |
| ISLRAVSTDPPHHDHHDEFCLMP [H1I] | 2.75 | 1.82 |
| GSLRAVSTDPPHHDHHDEFCLMP [H1G] | 3.41 | 2.65 |
| KSLRAVSTDPPHHDHHDEFCLMP [H1K] | 3.29 | 2.43 |
| MSLRAVSTDPPHHDHHDEFCLMP [H1M] | 2.8 | 1.72 |
| LSLRAVSTDPPHHDHHDEFCLMP [H1L] | 3.11 | 1.68 |

| Variant | protein stability index [1] | protein stability index [2] |
| --- | --- | --- |
| DSLRAVSTDPPHHDHHDEFCLMP [H1D] | 3.42 | 3.31 |
| TSLRAVSTDPPHHDHHDEFCLMP [H1T] | 3.55 | 2.54 |
| FSLRAVSTDPPHHDHHDEFCLMP [H1F] | 2.24 |  |
| WSLRAVSTDPPHHDHHDEFCLMP [H1W] | 2.18 | 1.93 |
| SSLRAVSTDPPHHDHHDEFCLMP [H1S] | 3.04 | 2.26 |
| ASLRAVSTDPPHHDHHDEFCLMP [H1A] | 3.26 | 1.49 |
| HSLLAVSTDPPHHDHHDEFCLMP [R4L] | 2.73 | 3.03 |
| HSLIAVSTDPPHHDHHDEFCLMP [R4I] | 2.92 | 1.55 |
| HSLFAVSTDPPHHDHHDEFCLMP [R4F] | 2.11 | 2.22 |
| HSLKAVSTDPPHHDHHDEFCLMP [R4K] | 2.58 | 1.8 |
| HSLMAVSTDPPHHDHHDEFCLMP [R4M] | 2.45 | 2 |
| HSLAAVSTDPPHHDHHDEFCLMP [R4A] | 3.09 | 1.82 |
| HSLGAVSTDPPHHDHHDEFCLMP [R4G] | 3.32 | 2.64 |
| HSLEAVSTDPPHHDHHDEFCLMP [R4E] | 3.58 | 2.41 |
| HSLWAVSTDPPHHDHHDEFCLMP [R4W] | 2.38 | 2.9 |
| HSLCAVSTDPPHHDHHDEFCLMP [R4C] | 2.69 | 3.21 |
| HSLTAVSTDPPHHDHHDEFCLMP [R4T] | 3.08 | 2.84 |
| HSLVAVSTDPPHHDHHDEFCLMP [R4V] | 2.23 | 1.96 |
| HSLQAVSTDPPHHDHHDEFCLMP [R4Q] | 3.06 | 1.83 |
| HQLRAVSTDPPHHDHHDEFCLMP [S2Q] | 2.6 | 2.68 |
| HKLRAVSTDPPHHDHHDEFCLMP [S2K] | 2.58 | 1.89 |
| HILRAVSTDPPHHDHHDEFCLMP [S2I] | 2.49 | 2.83 |
| HHLRAVSTDPPHHDHHDEFCLMP [S2H] | 2.69 | 1.95 |
| HTLRAVSTDPPHHDHHDEFCLMP [S2T] | 2.04 | 2.11 |
| HDLRAVSTDPPHHDHHDEFCLMP [S2D] | 3.12 | 2.45 |

| Variant | protein stability index [1] | protein stability index [2] |
| --- | --- | --- |
| HELRAVSTDPPHHDHHDEFCLMP [S2E] | 2.65 | 2.29 |
| HYLRAVSTDPPHHDHHDEFCLMP [S2Y] | 2.5 | 3.18 |
| HNLRAVSTDPPHHDHHDEFCLMP [S2N] | 3.12 | 2.72 |
| HVLRAVSTDPPHHDHHDEFCLMP [S2V] | 2.21 | 2.88 |
| HWLRAVSTDPPHHDHHDEFCLMP [S2W] | 1.9 | 1.23 |
| HRLRAVSTDPPHHDHHDEFCLMP [S2R] | 2.73 | 1.58 |
| HMLRAVSTDPPHHDHHDEFCLMP [S2M] | 2.41 | 2.38 |
| HLLRAVSTDPPHHDHHDEFCLMP [S2L] | 2.53 | 2.93 |
| HALRAVSTDPPHHDHHDEFCLMP [S2A] | 2.31 | 3.34 |
| HCLRAVSTDPPHHDHHDEFCLMP [S2C] | 2.64 | 2.73 |
| HFLRAVSTDPPHHDHHDEFCLMP [S2F] | 2.24 | 3.2 |
| HSLRAGSTDPPHHDHHDEFCLMP [V6G] | 2.9 | 2.49 |
| HSLRAFSTDPPHHDHHDEFCLMP [V6F] | 1.92 | 2.8 |
| HSLRAYSTDPPHHDHHDEFCLMP [V6Y] | 2.41 | 3.34 |
| HSLRARSTDPPHHDHHDEFCLMP [V6R] | 2.19 | 2.37 |
| HSLRASSTDPPHHDHHDEFCLMP [V6S] | 2.62 | 3.49 |
| HSLRAKSTDPPHHDHHDEFCLMP [V6K] | 2.72 | 2.02 |
| HSLRAASTDPPHHDHHDEFCLMP [V6A] | 3 | 2.57 |
| HSLRAMSTDPPHHDHHDEFCLMP [V6M] | 2.51 | 2.68 |
| HSLRANSTDPPHHDHHDEFCLMP [V6N] | 2.98 | 2.76 |
| HSLRACSTDPPHHDHHDEFCLMP [V6C] | 2.52 | 2.93 |
| HSLRALSTDPPHHDHHDEFCLMP [V6L] | 2.35 | 3.23 |
| HSLRADSTDPPHHDHHDEFCLMP [V6D] | 2.64 | 2.57 |
| HSLRAISTDPPHHDHHDEFCLMP [V6I] | 2.27 | 2.17 |
